# Results reported in patent US20260274985A1 (MYTHIC THERAPEUTICS, published 2026).
# T1: Human TROP2 Protein, His Tag (Acro Biosystems) (human, UniProt P09758 27-274)
# T1 construct: not shown: His tag
# T1 sequence (looked up): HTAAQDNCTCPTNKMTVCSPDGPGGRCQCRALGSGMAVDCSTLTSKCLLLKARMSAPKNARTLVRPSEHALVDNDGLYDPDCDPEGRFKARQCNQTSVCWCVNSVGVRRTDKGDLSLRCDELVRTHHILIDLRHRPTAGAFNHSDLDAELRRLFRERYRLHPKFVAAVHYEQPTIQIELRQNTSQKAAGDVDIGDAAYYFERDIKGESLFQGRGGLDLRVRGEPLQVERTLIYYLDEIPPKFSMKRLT
# T2: Human TROP2 Protein, His Tag (Acro Biosystems) (human, UniProt P09758 27-274)
# T2 construct: not shown: His tag
# T2 sequence (looked up): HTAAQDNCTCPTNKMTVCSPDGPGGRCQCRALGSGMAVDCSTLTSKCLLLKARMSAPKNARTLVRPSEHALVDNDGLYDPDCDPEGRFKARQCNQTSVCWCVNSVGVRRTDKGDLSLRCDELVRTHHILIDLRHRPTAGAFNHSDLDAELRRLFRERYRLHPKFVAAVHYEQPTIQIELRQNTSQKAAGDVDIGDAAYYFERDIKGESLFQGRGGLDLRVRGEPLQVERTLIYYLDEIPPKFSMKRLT
# T3: Human TROP2 Protein, His Tag (Acro Biosystems) (human, UniProt P09758 27-274)
# T3 construct: also called TACSTD2; not shown: His tag
# T3 sequence (looked up): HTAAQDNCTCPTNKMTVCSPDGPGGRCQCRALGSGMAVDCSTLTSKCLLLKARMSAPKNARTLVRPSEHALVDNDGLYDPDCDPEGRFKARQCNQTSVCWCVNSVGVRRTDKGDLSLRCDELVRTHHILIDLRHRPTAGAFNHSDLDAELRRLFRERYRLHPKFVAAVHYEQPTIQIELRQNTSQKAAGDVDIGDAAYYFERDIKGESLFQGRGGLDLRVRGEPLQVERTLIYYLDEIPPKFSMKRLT
# How the values were obtained:
# [1] = target: T1, Human TROP2 Protein, His Tag (Acro …); experiment: BLI (Octet)
# [2] = target: T2, Human TROP2 Protein, His Tag (Acro …); experiment: BLI (Octet); remark: listed apart in the source
# [3] = target: T3, Human TROP2 Protein, His Tag (Acro …); experiment: BLI (Octet) [2/2]
Binder,binding result [2],binding result [3],further results
"MYT13280 (antibody, V domains shown, Full-length IgG from Expi293 supernatant; also called hu7E6SVG heavy chain and light chain pairing variant) VH: QVQLQESGPGLVKPSETLSLTCTVSGGSISSYGVHWIRQPPGKGLEWIGVIWTSGVTDYNSALMGRVTISVDTSKNQFSLKLSSVTAADTAVYYCARDGDYDRYTHDYWGQGTLVTVSS VL: DIVMTQSPDSLAVSLGERATINCRASKSVSTSGYSYMHWYQQKPGQPPKLLIYLASNLHSGVPDRFSGSGSGTDFTLTISSLQAEDVAVYYCQHSRELPYTFGQGTKLEIK",,,binding result [1]: binds
"MYT13304 (antibody, V domains shown, Full-length IgG from Expi293 supernatant; also called hu7E6SVG heavy chain and light chain pairing variant) VH: QVQLQESGPGLVKPSETLSLTCTVSGGSISSYGVHWIRQPPGKGLEWIGVIWTSGVTDYNSALMGRVTISVDTSKNQFSLKLSSVTAADTAVYYCARDGDYDHYTMDYWGQGTLVTVSS VL: DIVMTQSPDSLAVSLGERATINCRASKSVSTSGYSYMHWYQQKPGQPPKLLIYLASNLESGVPDRFSGSGSGTDFTLTISSLQAEDVAVYYCQHSRELPYHFGQGTKLEIK",,,binding result [1]: binds
"MYT13436 (antibody, V domains shown, Sacituzumab HC-LC pairing variant) VH: QVQLQQSGSELKKPGASVKVSCKASGYTFTNYGMNWVKQAPGQGLKWMGWINTYTGEPTYTDDFHGRFAFSLDTSVSTAYLQISSLKADDTAVYFCARGGFGSSYWYFDVWGQGSLVTVSS VL: DIQLTQSPSSLSASVGDRVSITCKASQDVSIAVAWYQQKPGKAPKLLIYSHSHRYTGVPDRFSGSGSGTDFTLTISSLQPEDFAVYYCQQHYHTPLTFGAGTKVEIK",,binds,
"MYT13410 (antibody, V domains shown, Sacituzumab HC-LC pairing variant) VH: QVQLQQSGSELKKPGASVKVSCKASGYTFTNYGMNWVKQAPGQGLKWMGWINTYTGEPTYTDHFKGRFAFSLDTSVSTAYLQISSLKADDTAVYFCARGGFGSSYWYFDVWGQGSLVTVSS VL: DIQLTQSPSSLSASVGDRVSITCKASQDVSIAVAWYQQKPGKAPKLLIYSHHYRYTGVPDRFSGSGSGTDFTLTISSLQPEDFAVYYCQQHYITPLTFGAGTKVEIK",,binds,
"MYT13423 (antibody, V domains shown, Sacituzumab HC-LC pairing variant) VH: QVQLQQSGSELKKPGASVKVSCKASGYTFTNYHMNWVKQAPGQGLKWMGWINTYTGEPTYTDDFKGRFAFSLDTSVSTAYLQISSLKADDTAVYFCARGGFGSSYWYFDVWGQGSLVTVSS VL: DIQLTQSPSSLSASVGDRVSITCKASQDVHIAVAWYQQKPGKAPKLLIYSHSYRYTGVPDRFSGSGSGTDFTLTISSLQPEDFAVYYCQQHYHTPLTFGAGTKVEIK",,binds,
"MYT13408 (antibody, V domains shown, Sacituzumab HC-LC pairing variant) VH: QVQLQQSGSELKKPGASVKVSCKASGYTFTNYGMNWVKQAPGQGLKWMGWINTYTGEPTHTDDFKGRFAFSLDTSVSTAYLQISSLKADDTAVYFCARGGFGSSYWYFDVWGQGSLVTVSS VL: DIQLTQSPSSLSASVGDRVSITCKASQDVSIAVAWYQQKPGKAPKLLIYSHHYRYTGVPDRFSGSGSGTDFTLTISSLQPEDFAVYYCQQHYITPLTFGAGTKVEIK",,binds,
"MYT13430 (antibody, V domains shown, Sacituzumab HC-LC pairing variant) VH: QVQLQQSGSELKKPGASVKVSCKASGYTFTNHGMNWVKQAPGQGLKWMGWINTYTGEPTYTDDFKGRFAFSLDTSVSTAYLQISSLKADDTAVYFCARGGFGSSYWYFDVWGQGSLVTVSS VL: DIQLTQSPSSLSASVGDRVSITCKASQDVSIAVAWYQQKPGKAPKLLIYSHSHRYTGVPDRFSGSGSGTDFTLTISSLQPEDFAVYYCQQHYHTPLTFGAGTKVEIK",,binds,
"MYT13409 (antibody, V domains shown, Sacituzumab HC-LC pairing variant) VH: QVQLQQSGSELKKPGASVKVSCKASGYTFTNYGMNWVKQAPGQGLKWMGWINTYTGEPTYTHDFKGRFAFSLDTSVSTAYLQISSLKADDTAVYFCARGGFGSSYWYFDVWGQGSLVTVSS VL: DIQLTQSPSSLSASVGDRVSITCKASQDVSIAVAWYQQKPGKAPKLLIYSHHYRYTGVPDRFSGSGSGTDFTLTISSLQPEDFAVYYCQQHYITPLTFGAGTKVEIK",,binds,
"MYT13271 (antibody, V domains shown, Full-length IgG from Expi293 supernatant; also called datopotamab heavy chain and light chain pairing variant) VH: QVQLVQSGAEVKKPGASVKVSCKASGYTFTTAGMQWVRQAPGQGLEWMGWINTHSGVPKYAEDFKGRVTISADTSTSTAYLQLSSLKSEDTAVYYCARSGFGSHYWYFDVWGQGTLVTVSS VL: DIQMTQSPSSLSASVGDRVTITCKASQDVSTAVAWYQQKPGKAPKLLIYSASYRYTGVPSRFSGSGSGTDFTLTISSLQPEDFAVYYCQHHYITPLTFGQGTKLEIK",,,binding result [1]: binds
"MYT13412 (antibody, V domains shown, Sacituzumab HC-LC pairing variant) VH: QVQLQQSGSELKKPGASVKVSCKASGYTFTNYGMNWVKQAPGQGLKWMGWINTYTGEPTYTDDFHGRFAFSLDTSVSTAYLQISSLKADDTAVYFCARGGFGSSYWYFDVWGQGSLVTVSS VL: DIQLTQSPSSLSASVGDRVSITCKASQDVSIAVAWYQQKPGKAPKLLIYSHHYRYTGVPDRFSGSGSGTDFTLTISSLQPEDFAVYYCQQHYITPLTFGAGTKVEIK",,binds,
"MYT13411 (antibody, V domains shown, Sacituzumab HC-LC pairing variant) VH: QVQLQQSGSELKKPGASVKVSCKASGYTFTNYGMNWVKQAPGQGLKWMGWINTYTGEPTYTDDHKGRFAFSLDTSVSTAYLQISSLKADDTAVYFCARGGFGSSYWYFDVWGQGSLVTVSS VL: DIQLTQSPSSLSASVGDRVSITCKASQDVSIAVAWYQQKPGKAPKLLIYSHHYRYTGVPDRFSGSGSGTDFTLTISSLQPEDFAVYYCQQHYITPLTFGAGTKVEIK",,binds,
"MYT13270 (antibody, V domains shown, Full-length IgG from Expi293 supernatant; also called datopotamab heavy chain and light chain pairing variant) VH: QVQLVQSGAEVKKPGASVKVSCKASGYTFTTAGMQWVRQAPGQGLEWMGWINTHSGVPKYAEDFKGRVTISADTSTSTAYLQLSSLKSEDTAVYYCARSGHGSSYWYFDVWGQGTLVTVSS VL: DIQMTQSPSSLSASVGDRVTITCKASQDVSTAVAWYQQKPGKAPKLLIYSASYRYTGVPSRFSGSGSGTDFTLTISSLQPEDFAVYYCQHHYITPLTFGQGTKLEIK",,,binding result [1]: binds

# More lines, main results first:
binding result [2],binding result [3],Binder,further results
no binding (tested: 50 nM),,"MYT12390 (antibody, V domains shown, datopotamab VL 28, 89 substituted) VH: QVQLVQSGAEVKKPGASVKVSCKASGYTFTTAGMQWVRQAPGQGLEWMGWINTHSGVPKYAEDFKGRVTISADTSTSTAYLQLSSLKSEDTAVYYCARSGFGSSYWYFDVWGQGTLVTVSS VL: DIQMTQSPSSLSASVGDRVTITCKASQHVSTAVAWYQQKPGKAPKLLIYSASYRYTGVPSRFSGSGSGTDFTLTISSLQPEDFAVYYCHQHYITPLTFGQGTKLEIK",
no binding (tested: 50 nM),,"MYT12397 (antibody, V domains shown, datopotamab VL 89, 92 substituted) VH: QVQLVQSGAEVKKPGASVKVSCKASGYTFTTAGMQWVRQAPGQGLEWMGWINTHSGVPKYAEDFKGRVTISADTSTSTAYLQLSSLKSEDTAVYYCARSGFGSSYWYFDVWGQGTLVTVSS VL: DIQMTQSPSSLSASVGDRVTITCKASQDVSTAVAWYQQKPGKAPKLLIYSASYRYTGVPSRFSGSGSGTDFTLTISSLQPEDFAVYYCHQHHITPLTFGQGTKLEIK",
no binding (tested: 50 nM),,"MYT12394 (antibody, V domains shown, datopotamab VL 51, 92 substituted) VH: QVQLVQSGAEVKKPGASVKVSCKASGYTFTTAGMQWVRQAPGQGLEWMGWINTHSGVPKYAEDFKGRVTISADTSTSTAYLQLSSLKSEDTAVYYCARSGFGSSYWYFDVWGQGTLVTVSS VL: DIQMTQSPSSLSASVGDRVTITCKASQDVSTAVAWYQQKPGKAPKLLIYSHSYRYTGVPSRFSGSGSGTDFTLTISSLQPEDFAVYYCQQHHITPLTFGQGTKLEIK",
no binding (tested: 50 nM),,"MYT12396 (antibody, V domains shown, datopotamab VL 52, 92 substituted) VH: QVQLVQSGAEVKKPGASVKVSCKASGYTFTTAGMQWVRQAPGQGLEWMGWINTHSGVPKYAEDFKGRVTISADTSTSTAYLQLSSLKSEDTAVYYCARSGFGSSYWYFDVWGQGTLVTVSS VL: DIQMTQSPSSLSASVGDRVTITCKASQDVSTAVAWYQQKPGKAPKLLIYSAHYRYTGVPSRFSGSGSGTDFTLTISSLQPEDFAVYYCQQHHITPLTFGQGTKLEIK",
no binding (tested: 50 nM),,"MYT12400 (antibody, V domains shown, datopotamab VL 28, 51, 92 substituted) VH: QVQLVQSGAEVKKPGASVKVSCKASGYTFTTAGMQWVRQAPGQGLEWMGWINTHSGVPKYAEDFKGRVTISADTSTSTAYLQLSSLKSEDTAVYYCARSGFGSSYWYFDVWGQGTLVTVSS VL: DIQMTQSPSSLSASVGDRVTITCKASQHVSTAVAWYQQKPGKAPKLLIYSHSYRYTGVPSRFSGSGSGTDFTLTISSLQPEDFAVYYCQQHHITPLTFGQGTKLEIK",
no binding (tested: 50 nM),,"MYT12391 (antibody, V domains shown, datopotamab VL 28, 92 substituted) VH: QVQLVQSGAEVKKPGASVKVSCKASGYTFTTAGMQWVRQAPGQGLEWMGWINTHSGVPKYAEDFKGRVTISADTSTSTAYLQLSSLKSEDTAVYYCARSGFGSSYWYFDVWGQGTLVTVSS VL: DIQMTQSPSSLSASVGDRVTITCKASQHVSTAVAWYQQKPGKAPKLLIYSASYRYTGVPSRFSGSGSGTDFTLTISSLQPEDFAVYYCQQHHITPLTFGQGTKLEIK",
no binding (tested: 50 nM),,"MYT12401 (antibody, V domains shown, datopotamab VL 28, 52, 89 substituted) VH: QVQLVQSGAEVKKPGASVKVSCKASGYTFTTAGMQWVRQAPGQGLEWMGWINTHSGVPKYAEDFKGRVTISADTSTSTAYLQLSSLKSEDTAVYYCARSGFGSSYWYFDVWGQGTLVTVSS VL: DIQMTQSPSSLSASVGDRVTITCKASQHVSTAVAWYQQKPGKAPKLLIYSAHYRYTGVPSRFSGSGSGTDFTLTISSLQPEDFAVYYCHQHYITPLTFGQGTKLEIK",
,binds,"MYT13414 (antibody, V domains shown, Sacituzumab HC-LC pairing variant) VH: QVQLQQSGSELKKPGASVKVSCKASGYTFTNHGMNWVKQAPGQGLKWMGWINTYTGEPTYTDDFKGRFAFSLDTSVSTAYLQISSLKADDTAVYFCARGGFGSSYWYFDVWGQGSLVTVSS VL: DIQLTQSPSSLSASVGDRVSITCKASQDVHIAVAWYQQKPGKAPKLLIYSHSYRYTGVPDRFSGSGSGTDFTLTISSLQPEDFAVYYCHQHYITPLTFGAGTKVEIK",
